# Assay results taken from patent publication US20240301081A1.
# Molecular target: rhCD45 His tag (human) (UniProt P08575)
# Assay: BLI (Octet HTX), compared with the parental antibody
# Chain of UniProt P08575 (P08575 26-577): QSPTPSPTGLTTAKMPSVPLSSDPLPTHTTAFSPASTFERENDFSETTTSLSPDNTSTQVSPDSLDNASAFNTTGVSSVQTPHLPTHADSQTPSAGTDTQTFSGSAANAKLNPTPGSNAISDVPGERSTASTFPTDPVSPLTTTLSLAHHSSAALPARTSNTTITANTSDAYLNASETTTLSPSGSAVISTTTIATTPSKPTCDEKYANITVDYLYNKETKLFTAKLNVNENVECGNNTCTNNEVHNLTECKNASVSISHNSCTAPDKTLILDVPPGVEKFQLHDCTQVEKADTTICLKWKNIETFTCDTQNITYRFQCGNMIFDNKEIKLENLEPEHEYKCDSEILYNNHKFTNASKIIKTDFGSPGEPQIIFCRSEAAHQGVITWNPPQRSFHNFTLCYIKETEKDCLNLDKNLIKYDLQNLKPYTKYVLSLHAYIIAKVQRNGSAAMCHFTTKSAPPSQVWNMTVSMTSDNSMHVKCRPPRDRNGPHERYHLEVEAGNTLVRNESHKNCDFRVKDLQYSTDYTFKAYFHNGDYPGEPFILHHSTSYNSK
row,Binder,fold change in KD relative to the parental antibody
1,"hu CD45 HC2 + LC1 (antibody, V domains shown) VH: EVQLLESGGGLVQPGGSLRLSCAASGFDFSRYWMSWVRQAPGKGLEWVSEINPTSSTINYADSVKGRFTISRDNSKNTLYLQMNSLRAEDTAVYYCARGNYYRYGDAMDYWGQGTMVTVSS VL: DIVMTQSPDSLAVSLGERATINCKSSKSVSTSGYSYLHWYQQKPGQPPKLLIYLASNLESGVPDRFSGSGSGTDFTLTISSLQAEDVAVYYCQHSRELPFTFGQGTKLEIK",< 10 fold
2,"hu CD45 HC2 + LC4 (antibody, V domains shown) VH: EVQLLESGGGLVQPGGSLRLSCAASGFDFSRYWMSWVRQAPGKGLEWVSEINPTSSTINYADSVKGRFTISRDNSKNTLYLQMNSLRAEDTAVYYCARGNYYRYGDAMDYWGQGTMVTVSS VL: DIQMTQSPSSLSASVGDRVTITCRASKSVSTSGYSYLHWYQQKPGKAPKLLIYLASNLQSGVPSRFSGSGSGTDFTLTISSLQPEDFATYYCQHSRELPFTFGQGTKLEIK",< 10 fold
3,"hu CD45 HC3 + LC4 (antibody, V domains shown) VH: EVQLVESGGGLVQPGGSLRLSCAASGFDFSRYWMSWVRQAPGKGLEWVAEINPTSSTINFVDSVKGRFTISRDNAKNSLYLQMNSLRAEDTAVYYCARGNYYRYGDAMDYWGQGTMVTVSS VL: DIQMTQSPSSLSASVGDRVTITCRASKSVSTSGYSYLHWYQQKPGKAPKLLIYLASNLQSGVPSRFSGSGSGTDFTLTISSLQPEDFATYYCQHSRELPFTFGQGTKLEIK",< 10 fold
4,"hu CD45 HC3 + LC1 (antibody, V domains shown) VH: EVQLVESGGGLVQPGGSLRLSCAASGFDFSRYWMSWVRQAPGKGLEWVAEINPTSSTINFVDSVKGRFTISRDNAKNSLYLQMNSLRAEDTAVYYCARGNYYRYGDAMDYWGQGTMVTVSS VL: DIVMTQSPDSLAVSLGERATINCKSSKSVSTSGYSYLHWYQQKPGQPPKLLIYLASNLESGVPDRFSGSGSGTDFTLTISSLQAEDVAVYYCQHSRELPFTFGQGTKLEIK",< 10 fold
5,"hu CD45 HC2 + LC3 (antibody, V domains shown) VH: EVQLLESGGGLVQPGGSLRLSCAASGFDFSRYWMSWVRQAPGKGLEWVSEINPTSSTINYADSVKGRFTISRDNSKNTLYLQMNSLRAEDTAVYYCARGNYYRYGDAMDYWGQGTMVTVSS VL: EIVLTQSPATLSLSPGERATLSCRASKSVSTSGYSYLHWYQQKPGQAPRLLIYLASNLATGIPARFSGSGSGTDFTLTISSLEPEDFAVYYCQHSRELPFTFGQGTKLEIK",< 10 fold
6,"hu CD45 HC4 + LC4 (antibody, V domains shown) VH: EVQLVESGGGLVKPGGSLRLSCAASGFDFSRYWMSWVRQAPGKGLEWVSEINPTSSTINYADSVKGRFTISRDNAKNSLYLQMNSLRAEDTAVYYCARGNYYRYGDAMDYWGQGTMVTVSS VL: DIQMTQSPSSLSASVGDRVTITCRASKSVSTSGYSYLHWYQQKPGKAPKLLIYLASNLQSGVPSRFSGSGSGTDFTLTISSLQPEDFATYYCQHSRELPFTFGQGTKLEIK",< 10 fold
7,"hu CD45 HC4 + LC3 (antibody, V domains shown) VH: EVQLVESGGGLVKPGGSLRLSCAASGFDFSRYWMSWVRQAPGKGLEWVSEINPTSSTINYADSVKGRFTISRDNAKNSLYLQMNSLRAEDTAVYYCARGNYYRYGDAMDYWGQGTMVTVSS VL: EIVLTQSPATLSLSPGERATLSCRASKSVSTSGYSYLHWYQQKPGQAPRLLIYLASNLATGIPARFSGSGSGTDFTLTISSLEPEDFAVYYCQHSRELPFTFGQGTKLEIK",< 10 fold
8,"hu CD45 HC4 + LC1 (antibody, V domains shown) VH: EVQLVESGGGLVKPGGSLRLSCAASGFDFSRYWMSWVRQAPGKGLEWVSEINPTSSTINYADSVKGRFTISRDNAKNSLYLQMNSLRAEDTAVYYCARGNYYRYGDAMDYWGQGTMVTVSS VL: DIVMTQSPDSLAVSLGERATINCKSSKSVSTSGYSYLHWYQQKPGQPPKLLIYLASNLESGVPDRFSGSGSGTDFTLTISSLQAEDVAVYYCQHSRELPFTFGQGTKLEIK",< 10 fold
